The chains are these.
B1: VH:VL chains; a variant is named by its letters at X, in order (parent)
chain 1: QVQLVQSGAEVKKPGASVKVSCKASGYTFTDYXMHWVRQAPGQGLEWMGXVNPNXXXTTYNQKFEGRVTMTTDTSTSTAYMELRSLRSDDTAVYYCARXNXLDXWGQGTTVTVSS
chain 2: DIQMTQSPSSLSASVGDRVTITCSVSSSVSSIYLHWYQQKPGKAPKLLIYSTSNLASGVPSRFSGSGSGTDFTLTISSLQPEDFATYYCQVYSGYPLTFGGGTKVEIK

Variants of B1 are the subject of this data set. The data set can be described thus: yeast display scFab, FACS + sequencing. The method, boiled down:
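For the non-specific binding call, a heavy-chain CDR mutant scFab library on the yeast surface was FACS-sorted and samples from two replicates were deep sequenced. Cells were labelled with anti-Myc and either biotinylated ovalbumin (260 μg/mL in PBSB, 3 h, room temperature) or soluble membrane proteins (130 μg/mL, 20 min on ice), with gates on the top 25% and bottom 10% of binders. With membrane protein and ovalbumin samples pooled, a sequence in ≥3 of 4 positive samples and no negatives was scored positive, and the converse rule scored negatives.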
With AARADSAD, the non-specific binding call is listed as “no binding”.

Turning to VKGRGDSF, the non-specific binding call is reported as “no binding”.

For the variant YRAGGVGS, the non-specific binding call was “binds”.

Take VKGRGVGY: the non-specific binding call is “binds”.

For YRRRGAWF, the non-specific binding call is given as “binds”.

With FRGEGAVS, the non-specific binding call was “binds”.

Take SKKRGASA: the non-specific binding call was “binds”.

VTTKSDGY: the non-specific binding call is “no binding”.

As for AARETVGA, the non-specific binding call was “binds”.

Take SEARSDGF: the non-specific binding call was “no binding”.

YRAGGFGS: the non-specific binding call is listed as “binds”.

For the variant FRARGAGV, the non-specific binding call is listed as “binds”.

For the variant YRGEASVD, the non-specific binding call is “binds”.

As for SEARSDAA, the non-specific binding call is listed as “no binding”.

As to YKGGSSAA, the non-specific binding call is “binds”.

As to VEEEGAGD, the non-specific binding call is on record as “no binding”.

For ARGKGSGD, the non-specific binding call is reported as “binds”.

Consider YTTGGDGA, for which the non-specific binding call is “no binding”.

Regarding VTGTSSLD, the non-specific binding call is on record as “no binding”.

On to VTTKSDVF, for which the non-specific binding call is on record as “no binding”.

As for VEKGGSGV, the non-specific binding call is recorded as “no binding”.

VKERGSVD: the non-specific binding call is “binds”.

As to VEAGDAVA, the non-specific binding call is reported as “no binding”.

Regarding VETTDSWV, the non-specific binding call was “no binding”.

For the variant DGGRGDGA, the non-specific binding call is on record as “no binding”.

Consider DKKEDSAD, for which the non-specific binding call is listed as “no binding”.

As for VKEKGAWS, the non-specific binding call is “no binding”.

VRERGDAS: the non-specific binding call is recorded as “binds”.

As for VRGRSSAA, the non-specific binding call is listed as “binds”.

On to YRGRGSWY, for which the non-specific binding call was “binds”.

For the variant DRAGDYLY, the non-specific binding call was “no binding”.

Consider VKARGSGA, for which the non-specific binding call was “binds”.

On to YRGGAAAA, for which the non-specific binding call is reported as “binds”.

For the variant YKRGGAGS, the non-specific binding call is listed as “binds”.

For ARGGDDGA, the non-specific binding call was “no binding”.

With VTGGDYAV, the non-specific binding call is “no binding”.

Consider YKGRGDGY, for which the non-specific binding call was “binds”.

Regarding AATTDAGD, the non-specific binding call is on record as “no binding”.

Take YKEGGAGD: the non-specific binding call is “no binding”.

With SRRRGSAA, the non-specific binding call is reported as “binds”.

With DTGTGSGA, the non-specific binding call was “no binding”.

As for DTAGDAVV, the non-specific binding call is “no binding”.

As for DTKAASWV, the non-specific binding call is reported as “no binding”.

As for YKGKGAWV, the non-specific binding call is recorded as “binds”.

Turning to FRKRGAWY, the non-specific binding call was “binds”.

As for VTEGDDVF, the non-specific binding call is given as “no binding”.

For YRTGGAWD, the non-specific binding call is recorded as “binds”.

As to YAGKNAVV, the non-specific binding call is given as “no binding”.

Regarding YRGGSDGS, the non-specific binding call was “no binding”.

As to YRARSFGD, the non-specific binding call was “binds”.

In the case of YRTKGAVY, the non-specific binding call is given as “binds”.

With DGGGNDLA chain 1 R87K, the non-specific binding call is recorded as “no binding”.

Turning to VTTKSFGV, the non-specific binding call is reported as “no binding”.

Take YRGASSWV: the non-specific binding call was “binds”.

Consider FRGKGSGD, for which the non-specific binding call is listed as “binds”.

On to FRGKGSGF, for which the non-specific binding call is on record as “binds”.

As to FRERGSAV, the non-specific binding call is given as “binds”.

With SGEGGAVA, the non-specific binding call is given as “no binding”.

Turning to VTAESSSF, the non-specific binding call is “no binding”.

For AKERGDGV, the non-specific binding call is “no binding”.

For AETAGAAA, the non-specific binding call is “no binding”.

With FAGGGDGD, the non-specific binding call is given as “no binding”.

For the variant VTEENDGY, the non-specific binding call is “no binding”.

For YTRGGSGA, the non-specific binding call was “binds”.

Turning to YRTRGYAV, the non-specific binding call is on record as “binds”.

As to YKGRDALD, the non-specific binding call was “binds”.

Consider VGGGADGV, for which the non-specific binding call is “no binding”.

With FAGTSVGS, the non-specific binding call is “binds”.

On to FTETGFGA, for which the non-specific binding call is recorded as “binds”.

In the case of VRGGSDVA, the non-specific binding call is reported as “no binding”.

As to YRARGFGA, the non-specific binding call was “binds”.

As to VEGGGYSV, the non-specific binding call is recorded as “no binding”.

Regarding YTGRAALA, the non-specific binding call is listed as “no binding”.

For the variant VAAKSAAA chain 1 R38K, the non-specific binding call was “no binding”.

On to FRARGAAV, for which the non-specific binding call is given as “binds”.

Consider YRARSAGF chain 1 G108D, for which the non-specific binding call is “binds”.

Take FATTDSVD: the non-specific binding call is reported as “no binding”.

Take YEGGGSSA: the non-specific binding call is recorded as “no binding”.

On to DAGGDDGA, for which the non-specific binding call is “no binding”.

With VRGRDAVS, the non-specific binding call is listed as “binds”.

Regarding FRTGDAVF, the non-specific binding call was “no binding”.

STATADWV: the non-specific binding call is given as “no binding”.

For the variant SEARSSGY, the non-specific binding call is on record as “no binding”.

Take SKRKSSSD: the non-specific binding call was “binds”.

VTTKSSVA: the non-specific binding call is listed as “no binding”.

Consider DERRSSAF, for which the non-specific binding call is on record as “no binding”.

On to AETKGDGA, for which the non-specific binding call is recorded as “no binding”.

In the case of VETRSSSV, the non-specific binding call was “no binding”.

Consider YRARGYGV, for which the non-specific binding call was “binds”.

On to SKGRSDAV, for which the non-specific binding call is “no binding”.

For YRRRGYVA, the non-specific binding call is reported as “binds”.

In the case of YTTRGDGV, the non-specific binding call is “no binding”.

On to VKAGDSGA, for which the non-specific binding call is “no binding”.

Regarding YRGRDDLA, the non-specific binding call is listed as “no binding”.

YAAGSDVY: the non-specific binding call is recorded as “no binding”.

For YKAGDDGA, the non-specific binding call was “no binding”.

In the case of FARKSYGA, the non-specific binding call is given as “binds”.

For the variant VRGGSDGY, the non-specific binding call is reported as “no binding”.

For VGGTSSSA, the non-specific binding call was “no binding”.

YKGRGASS: the non-specific binding call is “binds”.

Turning to VGGTSDGD, the non-specific binding call was “no binding”.

Consider VKGRASWS, for which the non-specific binding call is reported as “no binding”.

For the variant YAGGDSGV, the non-specific binding call was “no binding”.

Take VRTRGDGA: the non-specific binding call was “binds”.

Regarding ATGRASLD, the non-specific binding call is “no binding”.

As to VKGRADWA, the non-specific binding call is on record as “no binding”.

As for AEGTSAVF, the non-specific binding call is given as “no binding”.

Regarding YKGRGYLV, the non-specific binding call is “no binding”.

For the variant FGGENDGD, the non-specific binding call is listed as “no binding”.

Consider DRGGDDLV, for which the non-specific binding call is “no binding”.

In the case of DAGGADWA, the non-specific binding call is given as “no binding”.

As to DRRGSDAV, the non-specific binding call is reported as “no binding”.

Turning to VTGTGDGA, the non-specific binding call was “no binding”.

Consider SEARSSSF, for which the non-specific binding call was “no binding”.

As for YKTGDSWV, the non-specific binding call is reported as “no binding”.

For VRERGVGV, the non-specific binding call is on record as “binds”.

Source of the values: the emibetuzumab library of Makowski et al. (2022).
